From publication PMC5964235, “rbFOX1/MBNL1 competition for CCUG RNA repeats binding contributes to myotonic dystrophy type 1/type 2 differences”

T1: GST-rbFOX1 (UniProt Q9NWB1)
T1 sequence: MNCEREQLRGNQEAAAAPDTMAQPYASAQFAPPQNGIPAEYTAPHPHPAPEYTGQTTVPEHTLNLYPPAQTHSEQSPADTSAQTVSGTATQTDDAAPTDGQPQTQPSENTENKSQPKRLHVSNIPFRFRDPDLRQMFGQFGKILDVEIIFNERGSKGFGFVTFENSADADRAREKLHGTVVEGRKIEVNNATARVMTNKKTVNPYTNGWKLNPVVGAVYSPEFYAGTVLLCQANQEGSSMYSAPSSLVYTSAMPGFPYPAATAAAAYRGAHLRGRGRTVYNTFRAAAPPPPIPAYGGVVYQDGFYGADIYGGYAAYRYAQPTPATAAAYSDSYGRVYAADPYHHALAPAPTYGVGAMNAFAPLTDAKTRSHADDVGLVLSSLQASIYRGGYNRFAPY

T2: rbFOX1 RRM (UniProt Q9NWB1 117-193)
T2 sequence: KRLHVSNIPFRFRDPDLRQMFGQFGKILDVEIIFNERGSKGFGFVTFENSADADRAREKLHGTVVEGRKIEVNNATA


How the values were obtained:
[1] = biological target: T1, GST-rbFOX1; assay: EMSA; settings: apparent KD; EMSA: 50 mM Tris-HCl pH 7.0, 75 mM NaCl, 37.5 mM KCl, 0.75 mM MgCl2, 5.25 mM DTT, 0.1 mg/mL BSA, 0.1 mg/mL bulk tRNA, 0.4 U/uL RNAsin, 20 min on ice, 10 pM …
[2] = biological target: T2, rbFOX1 RRM; assay: NMR; 15N-1H HSQC; EMSA: 50 mM Tris-HCl pH 7.0, 75 mM NaCl, 37.5 mM KCl, 0.75 mM MgCl2, 5.25 mM DTT, 0.1 mg/mL BSA, 0.1 mg/mL bulk tRNA, 0.4 U/uL RNAsin, 20 min on ice, 10 pM RNA; gel at 4 C; settings: protein: recombinant

Molecule | Kd [1] | binding result [2]
GGGAGACCCAAGCUGGCUAGCGUUUAAACUUAAGCUUCCUGCCUGCCUGCCUGCCUGCCUGCCUGCCUGCCUGCCUGCCUGCCUGCCUGCCUGCCUGCCUGCCUGCCUGCCUGCCUGCCUGCCUGCCUGCCUGCCUGCCUGCCUGCCUGCCUGCCUGCCUGCCUGCCUGCCUGCCUGCCUGCCUGCCUGCCUGCCUGCCUGCCUGCCUGCCUGCCUGCCUGCCUGCCUGCCUGCCUGCCUGCCUGCCUGCCUGCCUGCCUGCCUGCCUGCCUGCCUGCCUGCCUGCCUGCCUGCCUGCCUGCCUGCCUGCCUGCCUGCCUGCCUGCCUGCCUGCCUGCCUGCCUGCCUGCCUGCCUGCCUGCCUGCCUGCCUGCCUGCCUGCCUGCCUGCCUGCCUGCCUGCCUGCCUGCCUGCCUGCCUGCCUGCCUGCCUGCCUGG [(CCUG)100] | 3.2 nM | 
GGGAGACCCAAGCUGGCUAGCGUUUAAACUUAAGCUUCCUGCCUGCCUGCCUGCCUGCCUGCCUGCCUGCCUGCCUGG [(CCUG)10] | 9.7 nM | 
GGGAGACCCAAGCUGGCUAGCGUUUAAACUUAAGCUUCCUGCCUGCCUGCCUGCCUGCCUGCCUGCCUGCCUGCCUGCCUGCCUGCCUGCCUGCCUGCCUGCCUGCCUGCCUGCCUGCCUGCCUGCCUGCCUGCCUGCCUGCCUGCCUGCCUGCCUGG [(CCUG)30] | 6.3 nM | 
UGCCUGC (ssRNA) [UGCCUGC (NMR)] |  | binds
UGCAUGU (ssRNA) [UGCAUGU (NMR)] |  | binds
